Source: US20160052980A1, “CRP40 FRAGMENTS FOR THE TREATMENT OF NEUROLOGICAL DISORDERS” (CRP40 INC., priority 2013, published 2016)
“Also recorded” adds a separate entry of the source.

B1: P1P5: SEQ ID NO:4, P1P5 fragment of human CRP40 (27 kDa) (protein, listed as Homo sapiens)
chain: MDSSGPKHLNMKLTRAQFEGIVTDLIRRTIAPCQKAMQEVSKSDIGEVILVGGMTRMPKVQQTVQGLFGRAPSKAVNPDEAVAIGAAIQGGVLAGDVTDVLLLDVTPLSLGIETLGGVFTKLINRNTTIPTKKSQVFSTAADGQTQVEIKVCQGEREMAGDNKLLGQFTLIGIPPAPRGVPQIEVTFDIDANGIVHVSAKDKGTGRERQIVIQSSGGLSKDDIEENMVKNAEKYAEEDRRKKERV
B2: CRP40: SEQ ID NO:1, full-length human catecholamine-regulated protein, 40 kDa molecular chaperone, splice variant of mortalin (protein, listed as Homo sapiens)
chain: MDSSGPKHLNMKLTRAQFEGIVTDLIRRTIAPCQKAMQDAEVSKSDIGEVILVGGMTRMPKVQQTVQDLFGRAPSKAVNPDEAVAIGAAIQGGVLAGDVTDVLLLDVTPLSLGIETLGGVFTKLINRNTTIPTKKSQVFSTAADGQTQVEIKVCQGEREMAGDNKLLGQFTLIGIPPAPRGVPQIEVTFDIDANGIVHVSAKDKGTGREQQIVIQSSGGLSKDDIENMVKNAEKYAEEDRRKKERVEAVNMAEGIIHDTETKMEEFKDQLPADECNKLKEEISKMRELLARKDSETGENIRQAASSLQQASLKLFEMAYKKMASEREGSGSSGTGEQKEDQKEEKQ
B3: P1P3: SEQ ID NO:2, P1P3 fragment of human CRP40 (11.1 kDa) (protein, listed as Homo sapiens)
chain: MDSSGPKHLNMKLTRAQFEGIVTDLIRRTIAPCQKAMQDAEVSKSDIGEVILVGGMTRMPKVQQTVQDLFGRAPSKAVNPDEAVAIGAAIQGGVLA
B4: HSP47: heat shock protein 47, a 47 kDa collagen-specific chaperone used as negative control (protein, UniProt P50454 19-418, looked up)
Serpin H1: AEVKKPAAAAAPGTAEKLSPKAATLAERSAGLAFSLYQAMAKDQAVENILVSPVVVASSLGLVSLGGKATTASQAKAVLSAEQLRDEEVHAGLGELLRSLSNSTARNVTWKLGSRLYGPSSVSFADDFVRSSKQHYNCEHSKINFRDKRSALQSINEWAAQTTDGKLPEVTKDVERTDGALLVNAMFFKPHWDEKFHHKMVDNRGFMVTRSYTVGVMMMHRTGLYNYYDDEKEKLQIVEMPLAHKLSSLIILMPHHVEPLERLEKLLTKEQLKIWMGKMQKKAVAISLPKGVVEVTHDLQKHLAGLGLTEAIDKNKADLSRMSGKKDLYLASVFHATAFELDTDGNPFDQDIYGREELRSPKLFYADHPFIFLVRDTQSGSLLFIGRLVRPKGDKMRDEL

Columns and labels:
[1] = Competitive radioligand binding of [3H]-DA in the presence of cold apomorphine; details: 1 nM radioligand, 10 μg protein, range of unlabeled apomorphine
Procedure: (§1) Methods. The ability of cold DA to displace bound tritiated dopamine ([3H]-DA) in CRP40, P2P4, or heat-shock protein 47 (a control heat-shock protein that plays a role in collagen synthesis) was assessed by competitively binding [3H]-DA in the presence of different concentrations of unlabeled DA or apomorphine (in 0.1% ascorbic acid) using the same methodology as in (Gabriele et al., 2009). […] At the end of incubation, the bound and free ligands were separated by vacuum filtration through Whatman GF/B filters. The filters were washed with 3×5 ml of Tris-EDTA buffer and the radioactive counts were determined on a Beckman scintillation counter. The Assay Buffer was prepared by adding the following components to 500 ml of double distilled water: 25 ml 1M Tris-HCl (pH 8; 50 mM), […] (1 mM), 100 mM PMSF in ethanol (0.1 mM), 0.508 g MgCl2·6H2O (5 mM), 0.0077 g DTT (0.1 mM), 0.050 g Bacitracin (100 μg/ml), and 0.0025 g
(§2) Soybean Trypsin (5 μg/ml). The final pH was adjusted to 7.4. The filtration Buffer was prepared by adding the following components to 2 L of double distilled water: 100 ml 1M Tris-HCl (pH 8; 50 mM), and 4 ml 500 mM EDTA (1 mM). The final pH was adjusted to 7.4. Statistical analysis of the data was performed utilizing Graph Pad Prism 6.0 software. […]

[2] = Competitive radioligand binding of [3H]-DA in the presence of cold DA; details: 1 nM radioligand, 10 μg protein, range of unlabeled DA
Procedure: as §1, §2

[3] = system: 6-OHDA rats; assay: 6-OHDA rat model, apomorphine-induced rotational behaviour; assay type: in vivo; details: injection in left striatum; apomorphine 0.5 mg/kg s.c.; rotations counted over 10 minutes; versus controls
Procedure: 6-Hydroxydopamine (or 6-OHDA) animal model of dyskinesia and oxidative stress: The 6-OHDA model was chosen for this study as this model is characterized by oxidative stress and degeneration of DA neurons, similar to the condition in human idiopathic PD patients and is a well-known preclinical animal model of PD.
6-OHDA animals, male Sprague-Dawley rats from Charles River (Raleigh, N.C., USA), were prepared by hemi-lateral lesioning of the A9 dopaminergic pathway by injecting 6-OHDA toxin in the substantia nigra par compacta (SNc) region of the rat brain. This unilateral nigrostriatal degeneration cause assymetry in motor behaviours due to imbalanced dopimanergic activity between striata. […] Baseline rotational behavior and locomoter testing were performed before surgical intervention.
The protocol for lesioning is synonymous with our 6-OHDA stereotaxic injection protocol found in Modi et al., (1996). Rats were sent to the McMaster University animal facility and allowed to acclimatize to the colony room for 1 week following arrival. Each rat was handled by the same researcher daily for 7 days before the start of the experiment. Animals were then tested for baseline apomorphine-induced rotations (tested during light hours), and locomotor activity (tested during dark hours) under apomorphine challenge treatment. Animals were then split into groups and injected with CRP40, CRP40 fragments and peptides, and controls. Animals were housed and tested in compliance with the guidelines described in the Guide to the Care and Use of Experimental Animals (Canadian Council on Animal Care, 1984; 1993).
6-OHDA rats were injected in the left striatum with one of the various fragments via stereotaxic surgery. […] Coordinates for striatal injections of treatment are as follows: A/P +0.7 mm, M/L +3.0 mm, and D/V −5.0 mm. A 25 μl Hamilton syringe with a 22 gauge 2 inch blunt needle was used to inject treatments at a rate of 1 μl/min.
Apomorphine injection causes full body rotational behaviour in the direction contralateral to the 6-OHDA lesion. The total number of rotations per fixed time period is used as a measure of improving or worsening symptomology. A holding chamber in which the animal is confined to a circular shaped floor is used to count rotations, as this is an optimal arrangement for these experiments compared to an open field box. 0.5 mg/ml Apomorphine (Sigma: A4393) was dissolved in 0.9% saline with 0.1% ascorbic acid. Animals were injected subcutaneously with apomorphine (0.5 mg/kg body weight). Animals were placed in a clear plastic cylindrical holding tank and allowed 5 minutes for habituation. Following habituation, 10 minutes was allotted and a cell counter was used to record the number of rotations.

[4] = system: SH-SY5Y cells; assay: ATP-Glo Bioluminometric Cell Viability Assay with MG-132 proteasomal inhibitor; assay type: cell-based; details: for preservation of ATP levels and cell viability under proteasomal stress: overexpression in SH-SY5Y cells, MG-132; for cell viability in basal condition versus normal non-transfected SH-SY5Y cells: no MG-132, p<0.0001
Text: The ability of CRP40- and mortalin-transfected SH-SY5Y cells to maintain mitochondrial homeostasis, specifically energy production and ATP levels, was examined using the ATP-Glo™ Bioluminometric Cell Viability Assay Kit. MG-132 was used to inhibit proteasomal function and cause increased oxidative stress, which would compromise mitochondrial function, as well as the processes of energy production. The quantitation of ATP levels was thus used as a measure of cell viability.
FIG. 7 summarizes the results of the adenosine triphosphate assays. […] Mortalin was used as a positive control in this assay. […] The data are representative of mean±S.D. of experiments for each condition performed twice, in triplicate.

[5] = system: SH-SY5Y cells; assay: OxiSelect Intracellular ROS Assay, H2O2-induced oxidative stress in transfected cells; assay type: cell-based; details: overexpression in transfected SH-SY5Y cells; 500 μM H2O2; normal cells had increased ROS
Procedure: The ability of CRP40- and mortalin-transfected SH-SY5Y cells to protect against the harmful effects of mitochondrial ROS in comparison to normal non-transfected SH-SY5Y cells was measured using the OxiSelect™ Intracellular ROS Assay Kit (Green Fluorescence). H2O2 treatment was used to induce oxidative stress in the assay. Increased fluorescence in this assay corresponded to greater ROS levels.

| Molecule | specific binding of [3H]-DA in competition with cold apomorphine (apomorphine binding) [1] | specific binding of [3H]-DA in competition with cold DA (dopamine binding) [2] | rotational behaviour in the 6-OHDA rat model [3] | preservation of ATP levels and cell viability under proteasomal stress [4] | cell viability in basal condition versus normal non-transfected SH-SY5Y cells [4] | ROS levels under oxidative stress versus normal non-transfected SH-SY5Y cells [5] |
| --- | --- | --- | --- | --- | --- | --- |
| P2P4: SEQ ID NO:5, 60-amino acid fragment spanning amino acids 95-154 of full-length CRP40 (6.6 kDa) | does not bind; also recorded: do not bind apomorphine | does not bind dopamine at all | reduction of rotational behavior; also recorded: alleviate rotational symptoms; also recorded: as effective as full-length CRP40 |  |  |  |
| mortalin: ubiquitously expressed molecular chaperone of 649 amino acids encoded by HSPA9B; positive control in the ATP assay [reference compound] |  |  |  | helps to maintain intracellular ATP levels and energy production; also recorded: partially preserve ATP levels and cell viability | significantly lower | partially preserves mitochondrial homeostasis and ROS levels |
| B1 |  |  | reduction of rotational behavior; also recorded: effective |  |  |  |
| B2 | binds apomorphine; also recorded: binds dopamine | binds DA with high capacity and low affinity; also recorded: binds dopamine with high capacity and low affinity | alleviate rotational symptoms; also recorded: could correct movement impairments | helps to maintain intracellular ATP levels and energy production; also recorded: partially preserve ATP levels and cell viability | significantly lower | partially preserves mitochondrial homeostasis and ROS levels |
| B3 |  |  | not effective |  |  |  |
| B4 |  |  | does not elicit a correction of rotational behaviour |  |  |  |
